The values that follow come from article PMC6944315.

Where “and” joins values, the source holds several entries; their conditions need not be identical. Equal entries are not always repeated.

Experiment [1] deals with CmSQR truncated 2 (T2), lacking the last two C-terminal helices, His-tagged (Caldivirga maquilingensis IC-167). Kind of experiment: SEC.
Experiment [2] has the same target. Kind of experiment: cross-linking.
The target is the same in experiment [3]. Kind of experiment: native gel or EMSA. (In general: In EMSA bound probe runs differently from free probe, usually more slowly.)
Experiment [4] addresses Caldivirga maquilingensis type III sulfide:quinone oxidoreductase, wild type, His-tagged (Caldivirga maquilingensis IC-167). In words: SEC.
For experiment [5], the target named is CmSQR truncated 1 (T1), lacking the complete last C-terminal helix (Caldivirga maquilingensis IC-167). Kind of experiment: SEC. (Size exclusion chromatography separates by hydrodynamic size, large species first.)
Experiment [6] shares this target. In words: native gel or EMSA.

For “CmSQR truncated 2 (T2), lacking the last two C-terminal helices, His-tagged (domain or fragment)”, the stoichiometry N is 2 in experiment [1]; 2 and 3 in experiment [2]; 2 and 3 in experiment [3].

In turn, “Caldivirga maquilingensis type III sulfide:quinone oxidoreductase, wild type, His-tagged (enzyme)” showed a stoichiometry N in experiment [4] of 2.

Turning to “CmSQR truncated 1 (T1), lacking the complete last C-terminal helix (domain or fragment)”, the stoichiometry N in experiment [5] and in experiment [6] was 2 throughout.

As usually defined, the stoichiometry N is a count of units in the complex or per binding partner.
